The values that follow come from PMC3257359 (Cell research, 2011).

No end group written: not given here. *: point of attachment. Biotin = O=C1N[C@H]2[C@H](CS[C@H]2CCCCC(=O)*)N1

The target in the experiment is T1, human PPARγ LBD (residues 206-477) (human, UniProt P37231-2 206-477).
T1 sequence: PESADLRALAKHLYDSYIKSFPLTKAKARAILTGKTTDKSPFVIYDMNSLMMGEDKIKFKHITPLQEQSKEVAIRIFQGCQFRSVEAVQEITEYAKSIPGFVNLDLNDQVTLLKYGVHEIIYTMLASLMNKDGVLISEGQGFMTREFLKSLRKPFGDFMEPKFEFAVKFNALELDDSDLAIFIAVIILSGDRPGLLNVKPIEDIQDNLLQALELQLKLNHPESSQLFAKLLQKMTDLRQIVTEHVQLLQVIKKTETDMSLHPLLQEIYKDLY
The experiment in a line: AlphaScreen or HTRF. (Bead proximity is the source of the signal in Alpha formats.)
In the case of Biotin-QKPTSGPQTPQAQQKSLLQQLLTE, the binding result is on record as “binds”.
On to Biotin-SPSSHSSLTERHKILHRLLQEGSP, for which the binding result was “binds”.
Then Biotin-QEPVSPKKKENALLRYLLDKDDTKD, with “binds”.
Take Biotin-SGNLVPDAASKHKQLSELLRGGSG [CBP-1 peptide (coactivator LXXLL motif of CBP), N-terminally biotinylated]: the binding result is reported as “binds”.
